# Data published in PMC7021683, “RNA sequence and length contribute to RNA-induced conformational change of TLS/FUS”.
# B1: R12 (ssRNA)
# RNA: GUUAAGAGGGUA
# B2: R6 (ssRNA)
# RNA: GAGGGU
# B3: R13 (5'-pncRNA) (ssRNA)
# RNA: GUUAAGAGGGUAC
# B4: D13 (ssDNA)
# DNA: GTTAAGAGGGTAC
# B5: R19 (3'-pncRNA) (structured_RNA)
# RNA: CGGUGGUUUGAUGACACUG
# B6: D19 (ssDNA)
# DNA: CGGTGGTTTGATGACACTG
# B7: TAMRA-U31 (ssRNA)
# RNA: UUUUUUUUUUUUUUUUUUUUUUUUUUUUUUU
# B8: D31 (ssDNA)
# DNA: GTTAAGAGGGTACGGTGGTTTGATGACACTG
# Tests used:
# [1] = target: T1, MBP-BFP-TLS-GFP-6xHis (TLS/FUS) (UniProt P35637 1-526); test: FRET; Anisotropy: 5 mM Tris-HCl pH 7.6, 25 mM NaCl, 0.1% CHAPS, 2.5 mM glucose, 0.5 mM DTT, 25 C, 100 nM TAMRA-RNA; FRET buffer not in material; conditions: protein: recombinant; tags: N-term MBP, TagBFP; C-term TagGFP2, 6xHis
# [2] = target: T1, MBP-BFP-TLS-GFP-6xHis (TLS/FUS); test: as above; conditions: protein: recombinant, tags: N-term MBP, TagBFP, C-term TagGFP2, 6xHis
# [3] = target: T1, MBP-BFP-TLS-GFP-6xHis (TLS/FUS); test: as above; conditions: protein: recombinant; tags: N-term MBP, TagBFP; C-term TagGFP2, 6xHis; remark: listed apart in the source
# [4] = target: T1, MBP-BFP-TLS-GFP-6xHis (TLS/FUS); test: fluorescence anisotropy; 100 nM RNA; Anisotropy: 5 mM Tris-HCl pH 7.6, 25 mM NaCl, 0.1% CHAPS, 2.5 mM glucose, 0.5 mM DTT, 25 C, 100 nM TAMRA-RNA; FRET buffer not in material; conditions: protein: recombinant; tags: N-term MBP, TagBFP; C-term TagGFP2, 6xHis; label: TAMRA
# T1 sequence (P35637 whole entry): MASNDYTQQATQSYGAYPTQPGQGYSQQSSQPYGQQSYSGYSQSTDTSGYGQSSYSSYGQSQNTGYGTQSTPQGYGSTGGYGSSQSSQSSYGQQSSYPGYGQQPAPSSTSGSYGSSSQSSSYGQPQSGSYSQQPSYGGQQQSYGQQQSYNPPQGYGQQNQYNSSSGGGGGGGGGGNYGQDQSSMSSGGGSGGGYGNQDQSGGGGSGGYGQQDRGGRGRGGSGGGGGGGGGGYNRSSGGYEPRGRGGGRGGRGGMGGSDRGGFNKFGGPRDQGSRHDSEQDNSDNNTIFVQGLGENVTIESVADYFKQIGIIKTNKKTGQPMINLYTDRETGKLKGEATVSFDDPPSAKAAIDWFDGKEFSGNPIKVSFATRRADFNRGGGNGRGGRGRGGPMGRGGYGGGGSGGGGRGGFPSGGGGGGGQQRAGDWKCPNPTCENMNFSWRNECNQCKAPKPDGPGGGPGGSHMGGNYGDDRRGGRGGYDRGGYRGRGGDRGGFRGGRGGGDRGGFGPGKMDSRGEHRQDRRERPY
binder,measurement,setting,value
B1,binding result,[1],binds
B2,binding result,[1],binds
B3,binding signal,[2],0.0663 ± 0.0091 |dE| FRET
B4,binding signal,[3],0.0175 ± 0.0018 |dE| FRET
B5,binding signal,[2]; stem-loop,0.055 ± 0.0099 |dE| FRET
B6,binding signal,[3],0.0309 ± 0.0025 |dE| FRET
B7,binding result,[4],binds
B8,binding signal,[3],0.0594 ± 0.0039 |dE| FRET
